# Test results taken from paper PMC3713617.
# Positions count from the first letter of the chain named. Like-named read-outs stand apart in the source and are kept apart here.
# B1: pfr scrambled (GT repeats) (dsDNA)
# DNA 1: TTCATTAGTGTGTATGCTAT
# DNA 2: ATAGCATACACACTAATGAA
# B2: amiE Fur box scrambled (GT repeats) (dsDNA)
# DNA 1: TGCCCCGTGTGTGTGTGTGTATTAA
# DNA 2: TTAATACACACACACACACGGGGCA
# B3: pfr apo-Fur binding site duplex (dsDNA)
# DNA 1: TTCATTATCATTTATGCTAT
# DNA 2: ATAGCATAAATGATAATGAA
# B4: amiE Fur box duplex (dsDNA)
# DNA 1: TGCCCCAATAATCATAATGATTAA
# DNA 2: TTAATCATTATGATTATTGGGGCA
# Legend:
# [1] = target: Helicobacter pylori ferric uptake regulator, wildtype (HpFurWT) (H. pylori) (UniProt O25671); assay: cross-linking
# HpFurA92T [2] = target: T1, HpFurA92T (Helicobacter pylori, UniProt O25671 1-150, A92T); assay: competition
# T1 sequence: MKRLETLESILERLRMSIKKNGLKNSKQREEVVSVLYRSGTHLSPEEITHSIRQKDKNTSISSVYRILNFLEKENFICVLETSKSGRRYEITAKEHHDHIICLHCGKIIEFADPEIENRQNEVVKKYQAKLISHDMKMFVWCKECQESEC
# HpFurE5A [3] = target: T2, HpFurE5A (Helicobacter pylori, UniProt O25671 1-150, E5A); assay: competition
# T2 sequence: T1 sequence with E5A, T92A
# HpFurA92T [4] = target: T1, HpFurA92T; assay: fluorescence anisotropy
# HpFurWT [5] = target: T3, HpFurWT (Helicobacter pylori, UniProt O25671 1-150); assay: fluorescence anisotropy
# T3 sequence: T1 sequence with T92A
# HpFurH134Y [6] = target: T4, HpFurH134Y (Helicobacter pylori, UniProt O25671 1-150, H134Y); assay: fluorescence anisotropy
# T4 sequence: T1 sequence with T92A, H134Y
# HpFurA92T [7] = target: T1, HpFurA92T; assay: fluorescence anisotropy; remark: listed apart in the source
# HpFurWT [8] = target: T3, HpFurWT; assay: fluorescence anisotropy; remark: listed apart in the source
# HpFurH134Y [9] = target: T4, HpFurH134Y; assay: fluorescence anisotropy; remark: listed apart in the source
# HpFurE5A [10] = target: T2, HpFurE5A; assay: fluorescence anisotropy
molecule,measurement,setting,value
"Helicobacter pylori ferric uptake regulator, wildtype (HpFurWT) (from UniProt O25671 1-150) (natural protein)",stoichiometry N,[1],2
B1,binding result,HpFurA92T [2],no binding
B2,binding result,HpFurE5A [3],no binding
B3,Kd,HpFurA92T [4],13 ± 1 nM
same,Kd,HpFurWT [5],43 ± 2 nM
same,Kd,HpFurH134Y [6],8 ± 1 nM
B4,Kd,HpFurA92T [7],15 ± 2 nM
same,Kd,HpFurWT [8],16 ± 2 nM
same,Kd,HpFurH134Y [9],6 ± 1 nM
same,Kd,HpFurE5A [10],2 ± 1 nM
